Results on 14 molecules are retold here after article PMC11518761, “Making the effect visible – OX40 targeting nanobodies for in vivo imaging of activated T cells” (Frontiers in Immunology, 2024).

For assay [1], the target named is T1, recombinant hOX40, extracellular part (Leu 29 - Ala 216) (human, UniProt P43489 29-216).
T1 chain: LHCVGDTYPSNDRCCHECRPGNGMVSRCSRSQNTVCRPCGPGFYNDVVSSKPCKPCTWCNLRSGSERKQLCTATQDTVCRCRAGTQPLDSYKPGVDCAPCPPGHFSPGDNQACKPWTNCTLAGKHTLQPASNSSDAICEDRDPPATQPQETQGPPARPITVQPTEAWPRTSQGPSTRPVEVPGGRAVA
The assay is described as follows: BLI. For orientation: In BLI a coated tip is dipped into the sample, and binding shifts an interference pattern.

The target in assay [2] is T1, recombinant hOX40, extracellular part …. Description: BLI.
The target in assay [3] is T2, recombinant hOX40, extracellular part (Leu 29 - Ala 216) (human, UniProt P43489).
T2 construct: human OX40 (CD134/TNFRSF4), extracellular part, Leu29 to Ala216; The limits are stated for the immunogen; the BLI methods say only 'hOX40' / 'recombinant hOX40'; also called CD134; TNFRSF4; source: bought: Acrobiosystems, produced in human HEK293 cells
Description: BLI; biotinylated Nb (5 µg/mL) immobilised on streptavidin biosensors; hOX40 dilution series 0.2 nM - 320 nM, association 300 s, dissociation 720 s; Octet buffer (PBS, 0.1% BSA, 0.02% Tween20); 1:1 ligand-binding model, global fitting. The settings on record: both partners purified.

Assay [4] concerns the target T3, hOX40 full length on U2OS cells (U2OS-hOX40) (Homo sapiens, UniProt P43489).
T3 construct: human OX40 (CD134/TNFRSF4), cDNA GenBank NM_003327.3 in an IRES-eGFP/Blasticidin S deaminase vector; Also used as the target of the functional rows, where hOX40 stood on Jurkat-based OX40 effector cells (Promega); also called cellular expressed hOX40; hOX40 full length (D1-4); source: U2OS cells stably overexpressing hOX40, on the cell surface
Description: flow cytometry on cells; U2OS-hOX40 cells with dilution series of AF647-labeled Nbs (O12, O18 from 2.5 µM; O7, O19 from 10 µM), 4°C, 30 min, FACS buffer; KD as half-maximum binding at equilibrium, four-parametric sigmoidal model. The settings on record: one partner purified. For orientation: A flow cytometer gives signals particle by particle.

In assay [5] the target is T4, endogenous hOX40 on activated human T cells (Homo sapiens, UniProt P43489).
T4 construct: human OX40 (CD134/TNFRSF4), endogenous on T cells; also called physiologically expressed hOX40; source: endogenous, hPBMCs of healthy donors stimulated 24 h with PHA-L and IL-2 (CD3+ T cells)
Description: flow cytometry on cells; hPBMCs of three donors after 24 h PHA-L/IL-2 stimulation, AF647-labeled Nbs (200 nM; 400 nM for T cell subpopulations), 4°C, gated on CD3+ (and CD4+, CD8+, Treg). The note with it: one partner purified.

For assay [6], the target named is T5, hOX40 full length on U2OS cells (U2OS-hOX40) (human, UniProt P43489 29-277).
T5 chain: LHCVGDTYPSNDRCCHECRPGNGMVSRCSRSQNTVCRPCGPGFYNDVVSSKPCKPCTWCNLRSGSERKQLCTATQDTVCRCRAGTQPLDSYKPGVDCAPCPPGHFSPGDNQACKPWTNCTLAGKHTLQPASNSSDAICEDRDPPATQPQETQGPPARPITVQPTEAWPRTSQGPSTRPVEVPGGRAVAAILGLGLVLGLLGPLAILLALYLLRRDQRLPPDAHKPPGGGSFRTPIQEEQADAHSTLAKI
The assay is described as follows: FACS.

In assay [7] the target is T6, murine OX40 on U2OS cells (Mus musculus, UniProt P47741).
T6 construct: murine OX40, DNA bought from Sino Biological (Catalog Number MG50808-NM); The catalogue suffix -NM may denote an N-terminal Myc tag (surmised); also called mOX40; source: U2OS cells, transiently transfected, on the cell surface
T6 sequence (P47741 20-272): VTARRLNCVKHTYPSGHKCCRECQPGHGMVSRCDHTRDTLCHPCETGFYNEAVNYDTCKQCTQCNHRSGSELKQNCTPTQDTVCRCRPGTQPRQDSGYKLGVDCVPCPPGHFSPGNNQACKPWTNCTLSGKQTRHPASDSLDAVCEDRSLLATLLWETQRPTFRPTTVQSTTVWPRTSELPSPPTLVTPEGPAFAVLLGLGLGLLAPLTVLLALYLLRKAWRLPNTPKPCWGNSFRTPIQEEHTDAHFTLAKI
Description: immunostaining of cells or tissue; live-cell immunofluorescence of U2OS cells expressing hOX40 (stable) or murine OX40 (transient) with 10 -1000 nM AF647-labeled Nbs, 30 min, 4°C. The settings on record: one partner purified.

Assay [8] has as its target T7, human OX40 on HT1080 cells (HT1080-hOX40) (Homo sapiens, UniProt P43489).
T7 construct: human OX40 (CD134/TNFRSF4); the construct used for HT1080 cells is not described; source: HT1080 cells stably expressing human OX40, as subcutaneous xenograft tumors in CD1 nude mice
The assay is described as follows: in vivo optical imaging; 5 µg O18-AF647 i.v. in CD1 nude mice with subcutaneous HT1080-hOX40 or HT1080-WT tumors; imaging over 6 h and ex vivo imaging of explanted tumors. The note with it: one partner purified.

Assay [9] has as its target hOX40-Nbs with KD values in the pico- to low nanomolar range (O12, O18 and O19). Description: BLI; biotinylated Nb (5 µg/mL) immobilised on streptavidin biosensors; hOX40 dilution series 0.2 nM - 320 nM, association 300 s, dissociation 720 s; Octet buffer (PBS, 0.1% BSA, 0.02% Tween20); 1:1 ligand-binding model, global fitting.

B1: hOX40-Nb O19 (VHH)
VHH: QVQLQESGGGLVQPGGSLRLSCAGSTDTFSMSAAVSWARQAPGKGLEWVSSILSDGSTYYADSVRGRFTISRDNANNTGSLQMNNLKVEDTAVYYCTNLRGRLWSNHKDDYGGQGSRVTVSS
modifications: biotin where immobilised in BLI (site not stated)
In general, Kd refers to the constant that tells how readily two partners part at equilibrium. A word on the koff: it is a measure of how fast the partners let go of each other. B1: in assay [1], the Kd amounted to 3.41 nM. Further, the off-rate constant (koff) in assay [2] came out at 0.00021 s⁻¹.

B2: hOX40-Nb O19 (VHH)
VHH: QVQLQESGGGLVQPGGSLRLSCAGSTDTFSMSAAVSWARQAPGKGLEWVSSILSDGSTYYADSVRGRFTISRDNANNTGSLQMNNLKVEDTAVYYCTNLRGRLWSNHKDDYGGQGSRVTVSS
notes: source: E. coli XL-1 (pHEN6), purified (IMAC, SEC)
For the molecule B2, the binding result in assay [3] is “binds”.

B3: AF647-labeled hOX40-Nb O19 (VHH)
VHH: QVQLQESGGGLVQPGGSLRLSCAGSTDTFSMSAAVSWARQAPGKGLEWVSSILSDGSTYYADSVRGRFTISRDNANNTGSLQMNNLKVEDTAVYYCTNLRGRLWSNHKDDYGGQGSRVTVSS
notes: Uncoupled Nb was removed by Ni-NTA, so the His tag is probably lost on sortase coupling (surmised); also called fluorescent Nb O19; source: E. coli XL-1, purified; sortase A coupling, click labelling with DBCO-AF647, HIC
Take B3: the binding result in [4] and in assay [5] was “binds” throughout.

B4: AF647-labeled hOX40-Nb O19 (VHH)
VHH: QVQLQESGGGLVQPGGSLRLSCAGSTDTFSMSAAVSWARQAPGKGLEWVSSILSDGSTYYADSVRGRFTISRDNANNTGSLQMNNLKVEDTAVYYCTNLRGRLWSNHKDDYGGQGSRVTVSS
modifications: C-terminal Gly-Gly-Gly-propyl-azide attached by sortase A and clicked to DBCO-AF647 (labeling ratio 1:1)
On to B4, for which, in [6], binding was put at a Kd of 9.95 nM.

B5: hOX40-Nb O7 (VHH)
VHH: DVQLVESGGGLVQPGGSLRLSCAASGFTFGSYAMGWARQVPGKGLEWVSGIYSDGSTYYADSVKGRFTISRDNAKNTVYLQMNSLKPEDTAVYYCATWGAAAPYDYWGQGTQVTVSS
modifications: biotin where immobilised in BLI (site not stated)
On to B5, for which the koff in [2] was 0.00117 s⁻¹.

B6: AF647-labeled hOX40-Nb O7 (VHH)
VHH: DVQLVESGGGLVQPGGSLRLSCAASGFTFGSYAMGWARQVPGKGLEWVSGIYSDGSTYYADSVKGRFTISRDNAKNTVYLQMNSLKPEDTAVYYCATWGAAAPYDYWGQGTQVTVSS
modifications: C-terminal Gly-Gly-Gly-propyl-azide attached by sortase A and clicked to DBCO-AF647 (labeling ratio 1:1)
B6 yielded a dissociation constant Kd in assay [6] of 5.99 nM.

B7: hOX40-Nb O7 (VHH)
VHH: DVQLVESGGGLVQPGGSLRLSCAASGFTFGSYAMGWARQVPGKGLEWVSGIYSDGSTYYADSVKGRFTISRDNAKNTVYLQMNSLKPEDTAVYYCATWGAAAPYDYWGQGTQVTVSS
notes: as for B2
B7: the dissociation constant Kd in [3] is around 150 nM.

B8: AF647-labeled hOX40-Nb O7 (VHH)
VHH: DVQLVESGGGLVQPGGSLRLSCAASGFTFGSYAMGWARQVPGKGLEWVSGIYSDGSTYYADSVKGRFTISRDNAKNTVYLQMNSLKPEDTAVYYCATWGAAAPYDYWGQGTQVTVSS
notes: Uncoupled Nb was removed by Ni-NTA, so the His tag is probably lost on sortase coupling (surmised); also called fluorescent Nb O7; source: E. coli XL-1, purified; sortase A coupling, click labelling with DBCO-AF647, HIC
Regarding B8, the binding result in assay [7] was “binds”.

B9: hOX40-Nb O12 (VHH)
VHH: DVQLQESGGGLVQPGGSLRLSCAASGFTLDNYAIGWFRQAPGKEREGVSCISSSGESTNYADSVKGRFTISRDNAKNTVYLQTNSLKPEDTAVYYCAAVDDIGTTVQFMCNMGPYEYDYWGQGSPVTVSS
modifications: biotin where immobilised in BLI (site not stated)
Turning to B9, the Kd in assay [1] is 0.21 nM. In assay [2], the koff is 2e-05 s⁻¹.

B10: AF647-labeled hOX40-Nb O12 (VHH)
VHH: DVQLQESGGGLVQPGGSLRLSCAASGFTLDNYAIGWFRQAPGKEREGVSCISSSGESTNYADSVKGRFTISRDNAKNTVYLQTNSLKPEDTAVYYCAAVDDIGTTVQFMCNMGPYEYDYWGQGSPVTVSS
notes: Uncoupled Nb was removed by Ni-NTA, so the His tag is probably lost on sortase coupling (surmised); also called fluorescent Nb O12; source: E. coli XL-1, purified; sortase A coupling, click labelling with DBCO-AF647, HIC
In assay [4], B10 showed a Kd of around 0.1 nM.

B11: AF647-labeled hOX40-Nb O12 (VHH)
VHH: DVQLQESGGGLVQPGGSLRLSCAASGFTLDNYAIGWFRQAPGKEREGVSCISSSGESTNYADSVKGRFTISRDNAKNTVYLQTNSLKPEDTAVYYCAAVDDIGTTVQFMCNMGPYEYDYWGQGSPVTVSS
modifications: C-terminal Gly-Gly-Gly-propyl-azide attached by sortase A and clicked to DBCO-AF647 (labeling ratio 1:1)
B11 showed a Kd in [6] of 0.07 nM.

B12: hOX40-Nb O18 (VHH)
VHH: QVQLVESGGGLVQPGGSLRLSCAASGFTLEDYVIGWFRQAPGKEREEVSCISGSGGIRNVADSMEGRATISRDNAKNTVYLQMNSLKPEDTAVYYCAAGFETSYSYSYYCGVHEYDYWGQGTLVTVSS
modifications: biotin where immobilised in BLI (site not stated)
Regarding B12, in assay [1], the dissociation constant Kd was 1.93 nM. Besides, the koff in [2] was 0.00075 s⁻¹.

B13: AF647-labeled hOX40-Nb O18 (VHH)
VHH: QVQLVESGGGLVQPGGSLRLSCAASGFTLEDYVIGWFRQAPGKEREEVSCISGSGGIRNVADSMEGRATISRDNAKNTVYLQMNSLKPEDTAVYYCAAGFETSYSYSYYCGVHEYDYWGQGTLVTVSS
notes: Uncoupled Nb was removed by Ni-NTA, so the His tag is probably lost on sortase coupling (surmised); also called O18_(AF647); fluorescently-labeled Nb O18; source: E. coli XL-1, purified; sortase A coupling, click labelling with DBCO-AF647, HIC
For B13, the “fold signal intensity in HT1080-hOX40 over HT1080-WT tumors, 6 h post injection” value in assay [8] is around 7 fold. Also, the Kd in [4] was around 0.3 nM.

B14: recombinant hOX40, extracellular part (Leu 29 - Ala 216) (domain or fragment)
chain: LHCVGDTYPSNDRCCHECRPGNGMVSRCSRSQNTVCRPCGPGFYNDVVSSKPCKPCTWCNLRSGSERKQLCTATQDTVCRCRAGTQPLDSYKPGVDCAPCPPGHFSPGDNQACKPWTNCTLAGKHTLQPASNSSDAICEDRDPPATQPQETQGPPARPITVQPTEAWPRTSQGPSTRPVEVPGGRAVA
Consider B14, for which the Kd in assay [9] was in the range of 0.2 to 3.4 nM.
